Results as given in publication PMC11889175, “Molecular principles of redox-coupled sodium pumping of the ancient Rnf machinery” (Nature Communications, 2025).
Like-named read-outs stand apart in the source and are kept apart here.

B1: RnfB subunit of the Rnf complex from Acetobacterium woodii (natural protein)
chain: MLNAILVPVGILGVFGLIFGIGLAIAAKVFEVYEDPRVPLVRAALPGANCGGCGLPGCDALAANIVGGSAAIDACPVGGASCAAAVAEIMGMEAGSAVKKVATVICQGTCETAPNRAEYYGEMDCREAMIASGGSKGCRYGCLGYGTCKAVCPFDAIVIGEDGLPKVDPEKCTSCGKCVEACPKSIMTLVPEAQEVIVKCHNFDKGKIARLSCTTACIACGACVKACRFDAITVENNCAKIDYDKCRQCYECVDKCPMNCISGDVEYGKSTAYIIEENCIACGLCAKNCPVNAITGEIKKPPYVIDHDMCIGCGICFDKCRKSAIEMRPNKTK
notes: RnfB, membrane-anchored poly-ferredoxin subunit of the Rnf complex with eight [4Fe4S] clusters, Acetobacterium woodii; rnf genes amplified from genomic DNA; B8-domain is residues 30-100 of RnfB; also called poly-ferredoxin subunit RnfB
B2: RnfD subunit of the Rnf complex from Acetobacterium woodii (natural protein)
chain: MNELNLTVSSSPHIRAKHSTASIMQNVIIALLPALAVAGYVFGLWALALVAICVISSVATEAVIQKLLKKPITVNDWSAVVTGVLLAFNLPINAPWWIGVVGSVFAIAIVKQCFGGLGQNFINPALAARAFLLASWPGHMTSTAYIPLTDTVTTATPLALLKAGETGSMPSTLDLFTGLNGVYGCIGEISALALLIGGLYLIYKGIISWRIPTIYLLTIAIFALLVGQDPIVHMVSGGVMLGAFFMATDYASSPVTAKGQIIYAIGCGLITMIIRLYGGYPEGCSYSILLMNVATPLIERFTKERIYGVTKIKKEAKA
modifications: FMN covalently linked to T156
notes: RnfD, integral membrane subunit of the Rnf complex with ten transmembrane helices (riboflavin and covalent FMN), Acetobacterium woodii; rnf genes amplified from genomic DNA
B4: RnfE subunit of the Rnf complex from Acetobacterium woodii (natural protein)
chain: MNFMKNLTRGIIRENPTFVLVLGMCPTLAVTTSAINGMGMGLATMLVLIGSNVAISALRKVIPDNIRIPAFVVVIASFVTIVGMLMKAYVPALDAALGIFIPLIVVNCIILARAEAFAFSNGIADSFADAVGMGLGFTLALTILGSIREILGAGSIFGFSLFGAAYEPVLLMILPPGAFLTLGLLIGLINWKTKKA
notes: RnfE, integral membrane subunit of the Rnf complex, homologous to RnfA (29% identity), Acetobacterium woodii; rnf genes amplified from genomic DNA
B5: RnfG subunit of the Rnf complex from Acetobacterium woodii (natural protein)
chain: METKEKVQIDWKVVFKLGLILFVISAVAACALALTNYVTAGTIEEMNVQTNTVARQEVLPKAADFEAVPAKDVEKIASEIGMEKPEELLEVYIGKSNGEVVGYTVKTGPTSGYAGEVQVLTGISADGVITGITIIKSNETPGLGAKASGVWNDQFTGKSAKEELVVVKGTTKEGSNEIQAITGSTITSKAVTSGVNMSIQVYQNLSK
modifications: FMN covalently linked to T185
notes: RnfG, membrane-anchored periplasmic flavoprotein subunit of the Rnf complex, Acetobacterium woodii; rnf genes amplified from genomic DNA; The complex was captured on Ni-NTA by this tag; no cleavage step is described; not shown: His-Tag, C-terminal, kept

Columns and labels:
[1] = biological target: T1, Rnf complex (NADH / FMN site in RnfC) (Acetobacterium woodii, UniProt H6LC32); experiment: cryo-EM structure, […] Å; format: binding; parameters: whole six-subunit complex, His-tag at C-terminus of RnfG, plasmid-produced in A. woodii delta-rnf, DDM-solubilised, Ni-NTA and gel filtration, anoxic; with Na(+)-translocating ferredoxin:NAD(+) oxidoreductase complex subunit B; Na(+)-translocating ferredoxin:NAD(+) oxidoreductase complex subunit D; Na(+)-translocating ferredoxin:NAD(+) oxidoreductase complex subunit G; Na(+)-translocating ferredoxin:NAD(+) oxidoreductase complex subunit E; Na(+)-translocating ferredoxin:NAD(+) oxidoreductase complex subunit A; conditions: 500 µM NADH, 10 min, anoxic; stacks on non-covalent FMN of RnfC
[2] = biological target: T1, Rnf complex (NADH / FMN site in RnfC); conditions: 30 µM ferredoxin pre-reduced by CO and CODH/ACS; 20 mM Tris/HCl, 20 mM NaCl, pH 7.2, 30 °C
[3] = biological target: Rnf complex (FMN^G site in RnfG) (Acetobacterium woodii, UniProt H6LC30); conditions: covalent, linked to T185 of RnfG; 5 µM FMN in purification buffer
[4] = biological target: Rnf complex (riboflavin and FMN^D sites in RnfD) (Acetobacterium woodii, UniProt H6LC31)
[5] = biological target: T2, RnfC subunit of the Rnf complex from Acetobacterium woodii (Acetobacterium woodii, UniProt H6LC32 1-443); experiment: cryo-EM structure; Rnf complex purified in DDM, grids prepared under strictly anoxic conditions; NADH-reduced (3.3 Å), Fd-reduced (2.8 Å; state with B8 closer to the membrane 2.9 Å) and apo (3.0 Å) states, all with the same overall organisation; conditions: both partners purified
T2 construct: rnf genes amplified from genomic DNA
T2 sequence: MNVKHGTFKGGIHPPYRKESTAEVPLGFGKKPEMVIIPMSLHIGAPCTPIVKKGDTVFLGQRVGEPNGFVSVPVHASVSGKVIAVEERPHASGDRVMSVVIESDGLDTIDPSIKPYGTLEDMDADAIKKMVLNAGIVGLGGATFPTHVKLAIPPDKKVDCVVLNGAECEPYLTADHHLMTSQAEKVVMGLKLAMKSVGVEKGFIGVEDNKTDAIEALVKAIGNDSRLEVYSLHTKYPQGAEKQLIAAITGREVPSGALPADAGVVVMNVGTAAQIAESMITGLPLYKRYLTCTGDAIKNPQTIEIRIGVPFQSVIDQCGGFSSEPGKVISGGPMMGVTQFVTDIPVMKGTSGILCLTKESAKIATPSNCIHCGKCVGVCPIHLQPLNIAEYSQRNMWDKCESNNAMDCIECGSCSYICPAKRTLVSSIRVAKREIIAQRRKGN

[6] = biological target: B5; experiment: as above; conditions: both partners purified
[7] = biological target: B4; experiment: as above; conditions: both partners purified
[8] = biological target: B2; experiment: as above; conditions: both partners purified
[9] = biological target: B1; experiment: as above; conditions: both partners purified

NC(=O)C1=CN([C@@H]2O[C@H](COP(=O)(O)OP(=O)(O)OC[C@H]3O[C@@H](n4cnc5c(N)ncnc54)[C@H](O)[C@@H]3O)[C@@H](O)[C@H]2O)C=CC1 [NADH]
cryo-EM structure, 3.3 Å [1]: we observed a well-resolved density for a bound NADH molecule

NC(=O)c1ccc[n+]([C@@H]2O[C@H](COP(=O)(O)OP(=O)(O)OC[C@H]3O[C@@H](n4cnc5c(N)ncnc54)[C@H](O)[C@@H]3O)[C@@H](O)[C@H]2O)c1 [NAD^+]
ferredoxin:NAD oxidoreductase assay [2]: catalysed the ferredoxin-dependent reduction of NAD^+

Cc1cc2nc3c(=O)[nH]c(=O)nc-3n(C[C@H](O)[C@H](O)[C@H](O)COP(=O)(O)O)c2cc1C [flavin mononucleotide]
cryo-EM structure, 2.8-3.3 Å [3]: covalently binds FMN^G via T185^RnfG in its antiparallel βαβ-fold | cryo-EM structure, 2.8-3.3 Å ([4]; covalent, linked to T156 of RnfD, 5 µM FMN in purification buffer): RnfD contains an FMN^D cofactor covalently linked to T156^RnfD

Cc1cc2nc3c(=O)[nH]c(=O)nc-3n(C[C@H](O)[C@H](O)[C@H](O)CO)c2cc1C [riboflavin]
cryo-EM structure, 2.8-3.3 Å ([4]; pocket of RnfD connected to cytoplasmic side, hydrogen bonds to D249 and N123 of RnfD): RnfD binds the redox cofactor riboflavin (RBF)

B1
binding result [5]: binds

B2
binding result [5]: binds

B3: RnfA subunit of the Rnf complex from Acetobacterium woodii (natural protein)
chain: MTLIFIMISAIFVNNFVLSRFLGICPFLGVSKQVETAVGMGVAVTFVMALASAITYVVQYAILDPLSLGYLQTIAFILIIAALVQLVEMIIKKSSPSLYQALGVYLPLITTNCAVLGVALINIQNEYNFIETIFNGVGAALGFTLAIVLFAGIRERLETSAVPKALEGFPIALLTAGLMAIAFLGFSGMKL
notes: RnfA, integral membrane subunit of the Na+-pumping Rnf complex, Acetobacterium woodii; rnf genes amplified from genomic DNA
binding result [6]: binds | binding result [7]: binds

B4
binding result [6]: binds

B5
binding result [8]: binds | binding result [9]: binds
